Laboratory results: paper PMC10491584, “Structural convergence endows nuclear transport receptor Kap114p with a transcriptional repressor function toward TATA-binding protein” (Nature Communications, 2023)
“And” between values parts separate entries of the source, which are not always exact repeats. Equal values may be shown once.

Experiments:
Kap114pΔY933 = biological target: T1, Kap114pΔY933 (S. cerevisiae, UniProt P53067 1-1004, ΔY933); assay: ITC; Kap114p (wild type or mutant) 50 uM in the sample cell, partner 500 uM in the syringe; 25 °C; 20 mM HEPES pH 7.4, 150 mM NaCl; triplicate; details: both partners purified
T1 construct: Kap114p, S. cerevisiae, full length with residue Y933 deleted; also called Kap114p(DY933); source: E. coli (Rosetta strain), purified (GST resin, MonoQ, Superdex 200)
T1 sequence (looked up): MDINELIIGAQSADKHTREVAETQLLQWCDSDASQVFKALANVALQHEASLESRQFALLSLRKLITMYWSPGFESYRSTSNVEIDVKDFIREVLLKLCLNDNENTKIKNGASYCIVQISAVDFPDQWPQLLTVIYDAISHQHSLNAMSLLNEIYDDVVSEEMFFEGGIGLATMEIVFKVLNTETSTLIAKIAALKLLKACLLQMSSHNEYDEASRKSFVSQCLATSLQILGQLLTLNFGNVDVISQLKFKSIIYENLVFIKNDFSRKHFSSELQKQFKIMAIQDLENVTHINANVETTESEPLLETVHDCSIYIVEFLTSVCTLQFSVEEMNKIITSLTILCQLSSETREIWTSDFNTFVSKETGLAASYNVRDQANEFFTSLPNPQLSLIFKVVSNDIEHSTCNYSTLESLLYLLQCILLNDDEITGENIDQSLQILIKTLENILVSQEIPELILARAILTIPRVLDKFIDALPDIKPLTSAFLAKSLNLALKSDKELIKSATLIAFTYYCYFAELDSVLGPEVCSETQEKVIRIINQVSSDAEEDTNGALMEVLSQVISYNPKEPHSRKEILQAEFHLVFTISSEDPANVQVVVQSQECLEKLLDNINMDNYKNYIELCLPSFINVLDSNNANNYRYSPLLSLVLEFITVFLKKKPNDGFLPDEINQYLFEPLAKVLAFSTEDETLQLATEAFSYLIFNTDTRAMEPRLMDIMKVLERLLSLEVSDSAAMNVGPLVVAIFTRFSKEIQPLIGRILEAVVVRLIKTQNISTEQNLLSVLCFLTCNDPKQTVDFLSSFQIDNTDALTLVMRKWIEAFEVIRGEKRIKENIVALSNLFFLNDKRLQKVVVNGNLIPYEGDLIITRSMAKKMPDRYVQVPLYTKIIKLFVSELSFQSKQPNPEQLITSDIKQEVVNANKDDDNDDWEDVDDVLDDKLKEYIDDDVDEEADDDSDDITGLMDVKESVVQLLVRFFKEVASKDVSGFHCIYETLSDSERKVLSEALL

Kap114pΔ(932-941) = biological target: T2, Kap114pΔ(932-941) (S. cerevisiae, UniProt P53067 1-1004, Δ(932-941)); assay: as above; details: both partners purified
T2 construct: Kap114p, S. cerevisiae, full length with residues 932-941 deleted; also called Kap114p(D932-941); Kap114p deletion mutant lacking the HEAT19 loop (a.a. 932-941); source: E. coli (Rosetta strain), purified (GST resin, MonoQ, Superdex 200)
T2 sequence (looked up): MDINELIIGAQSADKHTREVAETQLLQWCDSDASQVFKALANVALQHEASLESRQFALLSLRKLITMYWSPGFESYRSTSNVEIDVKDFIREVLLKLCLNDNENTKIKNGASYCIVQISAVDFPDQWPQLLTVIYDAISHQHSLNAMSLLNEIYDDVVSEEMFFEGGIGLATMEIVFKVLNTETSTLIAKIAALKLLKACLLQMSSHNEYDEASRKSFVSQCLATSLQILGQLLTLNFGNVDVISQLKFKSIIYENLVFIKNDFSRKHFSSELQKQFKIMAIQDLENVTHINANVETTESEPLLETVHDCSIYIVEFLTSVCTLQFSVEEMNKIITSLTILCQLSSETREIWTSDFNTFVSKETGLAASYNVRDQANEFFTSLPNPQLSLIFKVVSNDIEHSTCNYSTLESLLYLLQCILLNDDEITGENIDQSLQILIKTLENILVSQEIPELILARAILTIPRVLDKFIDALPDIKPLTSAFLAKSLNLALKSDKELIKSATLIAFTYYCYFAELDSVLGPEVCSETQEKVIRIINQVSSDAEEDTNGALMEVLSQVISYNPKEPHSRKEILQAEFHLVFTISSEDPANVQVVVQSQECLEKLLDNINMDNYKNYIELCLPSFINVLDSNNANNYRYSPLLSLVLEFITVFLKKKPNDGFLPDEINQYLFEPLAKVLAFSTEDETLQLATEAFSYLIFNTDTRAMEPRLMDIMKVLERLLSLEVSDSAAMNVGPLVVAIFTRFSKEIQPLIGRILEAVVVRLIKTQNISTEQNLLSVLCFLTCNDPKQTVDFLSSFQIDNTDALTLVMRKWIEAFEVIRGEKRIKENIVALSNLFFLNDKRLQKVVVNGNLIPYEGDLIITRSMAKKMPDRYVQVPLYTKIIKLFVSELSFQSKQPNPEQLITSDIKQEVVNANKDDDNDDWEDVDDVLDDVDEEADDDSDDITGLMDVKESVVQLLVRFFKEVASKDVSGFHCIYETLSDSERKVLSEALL

Ka (Kap114pΔY933): 1.91e+08 M⁻¹ and 1.5e+08 M⁻¹ and 8.48e+07 M⁻¹ | Kd (Kap114pΔY933): 7.7 nM | Ka (Kap114pΔ(932-941)): 5.09e+06 M⁻¹ and 8.69e+06 M⁻¹ and 6.15e+06 M⁻¹
B1: core domain of yTBP (a.a. 61-240) (domain or fragment, S. cerevisiae, UniProt P13393 61-240, looked up)
chain: SGIVPTLQNIVATVTLGCRLDLKTVALHARNAEYNPKRFAAVIMRIREPKTTALIFASGKMVVTGAKSEDDSKLASRKYARIIQKIGFAAKFTDFKIQNIVGSCDVKFPIRLEGLAFSHGTFSSYEPELFPGLIYRMVKPKIVLLIFVSGKIVLTGAKQREEIYQAFEAIYPVLSEFRKM
notes: 61-240; also called yTBP^C; yTBPc; source: E. coli (Rosetta strain), purified (Ni-NTA, HiTrap SP, Superdex 75); not shown: 6xHis, N-terminal, cleaved
